# Measurements published in IntAct's records for PubMed 18007658.
# B1: Protein SLY1 (Saccharomyces cerevisiae), P22213 (parent)
# chain: MAVEEIASRKDISLRDMQISAILKMLFLNKDLNNNDNITTITDDIFNQQEIIWKVLILDIKSTATISSVLRVNDLLKAGITVHSLIKQDRSPLPDVPAIYFVSPTKENIDIIVNDLKSDKYSEFYINFTSSLPRNLLEDLAQQVSITGKSDKIKQVYDQYLDFIVTEPELFSLEISNAYLTLNDPKTTEEEITGLCANIADGLFNTVLTINSIPIIRAAKGGPAEIIAEKLGTKLRDFVINTNSSSTSTLQGNDSLERGVLIILDRNIDFASMFSHSWIYQCMVFDIFKLSRNTVTIPLESKENGTDNTTAKPLATKKYDIEPNDFFWMENSHLPFPEAAENVEAALNTYKEEAAEITRKTGVTNISDLDPNSNNDTVQIQEVVKKLPELTAKKNTIDTHMNIFAALLSQLESKSLDTFFEVEQDPGSTKTRSRFLDILKDGKTNNLEDKLRSFIVLYLTSTTGLPKDFVQNVENYFKENDYDINALKYVYKLREFMQLSNMSLQNKSLEDGSDSAFKPSNLTLSGIYGLTEGKLQGGVGSLISGIKKLLPEKKTIPITNVVDAIMDPLNSSQKNLETTDSYLYIDPKITRGSHTRKPKRQSYNKSLVFVVGGGNYLEYQNLQEWAHSQLHNPKKVMYGSTAITTPAEFLNEISRLGASNSSNNDA
# partner: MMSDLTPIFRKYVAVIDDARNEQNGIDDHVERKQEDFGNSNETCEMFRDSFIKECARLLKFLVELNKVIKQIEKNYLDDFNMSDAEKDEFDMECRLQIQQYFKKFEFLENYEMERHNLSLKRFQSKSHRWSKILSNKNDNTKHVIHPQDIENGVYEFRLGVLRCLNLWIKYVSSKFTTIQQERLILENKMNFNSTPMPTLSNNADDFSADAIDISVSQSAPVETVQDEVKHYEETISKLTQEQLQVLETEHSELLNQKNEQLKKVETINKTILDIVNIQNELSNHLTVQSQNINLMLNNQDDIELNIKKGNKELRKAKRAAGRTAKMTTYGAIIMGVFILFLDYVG
# B2: Syntaxin UFE1 (Saccharomyces cerevisiae), P41834 (parent)
# chain: B1 partner
# partner: B1 chain
# Variants of: B1
# Settings: with ufe1_yeast UFE1, P41834
row,effect of a mutation on the interaction,Variant
1,disrupting interaction,L137R

# Variants of: B1
# Settings: with ufe1_yeast UFE1, P41834
# Remark: another data set of the same source
row,effect of a mutation on the interaction,Variant
1,decreasing interaction,L137R

# Variants of: B2
# Settings: with sly1_yeast SLY1, P22213
row,effect of a mutation on the interaction,Variant
1,disrupting interaction,F9A
